Source: PMC4615758 (RNA Biology, 2014)

Biological target: the molecule itself
Assay: native gel or EMSA

B1: recombinant full size LARP6 purified from E. coli (natural protein)
chain: MAQSGGEARPGPKTAVQIRVAIQEAEDVDELEDEEEGAETRGAGDPARYLSPGWGSASEEEPSRGHSGTTASGGENEREDLEQEWKPPDEELIKKLVDQIEFYFSDENLEKDAFLLKHVRRNKLGYVSVKLLTSFKKVKHLTRDWRTTAHALKYSVVLELNEDHRKVRRTTPVPLFPNENLPSKMLLVYDLYLSPKLWALATPQKNGRVQEKVMEHLLKLFGTFGVISSVRILKPGRELPPDIRRISSRYSQVGTQECAIVEFEEVEAAIKAHEFMITESQGKENMKAVLIGMKPPKKKPAKDKNHDEEPTASIHLNKSLNKRVEELQYMGDESSANSSSDPESNPTSPMAGRRHAATNKLSPSGHQNLFLSPNASPCTSPWSSPLAQRKGVSRKSPLAEEGRLNCSTSPEIFRKCMDYSSDSSVTPSGSPWVRRRRQAEMGTQEKSPGTSPLLSRKMQTADGLPVGVLRLPRGPDNTRGFHGHERSRACV
  binding result: binds
